Test results taken from publication PMC8439105 (Current biology : CB, 2021).

Tests used:
[1] = target: HA-tagged LC3B-T50E (phospho-mimetic mutant) (UniProt Q9GZQ8 1-120, T50E); test: affinity purification with mass spectrometry
[2] = target: HA-tagged LC3B-T50A (phospho-deficient mutant) (UniProt Q9GZQ8 1-120, T50A); test: affinity purification with mass spectrometry
His-tagged LC3B-T50E = His-tagged LC3B-T50E (human, UniProt Q9GZQ8 1-120, T50E); test: BLI
His-tagged LC3B-T50A = His-tagged LC3B-T50A (human, UniProt Q9GZQ8 1-120, T50A); test: BLI
His-tagged LC3B-WT = His-tagged LC3B-WT (human, UniProt Q9GZQ8 1-120); test: BLI

B1: FYCO1 (endogenous, human cells) (natural protein)
chain: MASTNAESQLQRIIRDLQDAVTELSKEFQEAGEPITDDSTSLHKFSYKLEYLLQFDQKEKATLLGNKKDYWDYFCACLAKVKGANDGIRFVKSISELRTSLGKGRAFIRYSLVHQRLADTLQQCFMNTKVTSDWYYARSPFLQPKLSSDIVGQLYELTEVQFDLASRGFDLDAAWPTFARRTLTTGSSAYLWKPPSRSSSMSSLVSSYLQTQEMVSNFDLNSPLNNEALEGFDEMRLELDQLEVREKQLRERMQQLDRENQELRAAVSQQGEQLQTERERGRTAAEDNVRLTCLVAELQKQWEVTQATQNTVKELQTCLQGLELGAAEKEEDYHTALRRLESMLQPLAQELEATRDSLDKKNQHLASFPGWLAMAQQKADTASDTKGRQEPIPSDAAQEMQELGEKLQALERERTKVEEVNRQQSAQLEQLVKELQLKEDARASLERLVKEMAPLQEELSGKGQEADQLWRRLQELLAHTSSWEEELAELRREKKQQQEEKELLEQEVRSLTRQLQFLETQLAQVSQHVSDLEEQKKQLIQDKDHLSQQVGMLERLAGPPGPELPVAGEKNEALVPVNSSLQEAWGKPEEEQRGLQEAQLDDTKVQEGSQEEELRQANRELEKELQNVVGRNQLLEGKLQALQADYQALQQRESAIQGSLASLEAEQASIRHLGDQMEASLLAVRKAKEAMKAQMAEKEAILQSKEGECQQLREEVEQCQQLAEARHRELRALESQCQQQTQLIEVLTAEKGQQGVGPPTDNEARELAAQLALSQAQLEVHQGEVQRLQAQVVDLQAKMRAALDDQDKVQSQLSMAEAVLREHKTLVQQLKEQNEALNRAHVQELLQCSEREGALQEERADEAQQREEELRALQEELSQAKCSSEEAQLEHAELQEQLHRANTDTAELGIQVCALTVEKERVEEALACAVQELQDAKEAASREREGLERQVAGLQQEKESLQEKLKAAKAAAGSLPGLQAQLAQAEQRAQSLQEAAHQELNTLKFQLSAEIMDYQSRLKNAGEECKSLRGQLEEQGRQLQAAEEAVEKLKATQADMGEKLSCTSNHLAECQAAMLRKDKEGAALREDLERTQKELEKATTKIQEYYNKLCQEVTNRERNDQKMLADLDDLNRTKKYLEERLIELLRDKDALWQKSDALEFQQKLSAEERWLGDTEANHCLDCKREFSWMVRRHHCRICGRIFCYYCCNNYVLSKHGGKKERCCRACFQKLSEGPGSPDSSGSGTSQGEPSPALSPASPGPQATGGQGANTDYRPPDDAVFDIITDEELCQIQESGSSLPETPTETDSLDPNAAEQDTTSTSLTPEDTEDMPVGQDSEICLLKSGELMIKVPLTVDEIASFGEGSRELFVRSSTYSLIPITVAEAGLTISWVFSSDPKSISFSVVFQEAEDTPLDQCKVLIPTTRCNSHKENIQGQLKVRTPGIYMLIFDNTFSRFVSKKVFYHLTVDRPVIYDGSDFL
- fold change of binding against HA-LC3B-WT [1]: ~5 fold lower
- fold change of binding against HA-LC3B-WT [2]: ~2 fold higher

Binder: GQGANTDYRPPDDAVFDIITDEELCQIQESGSSL [FYCO1 peptide (1265–1298 amino acids of the human protein)]
- Kd (His-tagged LC3B-T50E): ~28 µM
- Kd (His-tagged LC3B-T50A): ~6 µM
- Kd (His-tagged LC3B-WT): ~4.1 µM
